Measurements taken from US7341859B2, “ADH from Rhodococcus erythropolis” (Degussa AG, priority 2002, dated 2008).

Tests used:
[1] = system: aldehyde reductase from Corynebacterium sp.; test: Activity of substrates with aldehyde reductase from Corynebacterium sp. (Itoh et al.); assay type: biochemical, Corynebacterium sp. ST-10; details: Corynebacterium enzyme
Description: When comparing the gene sequence for ADH from R. erythropolis with sequences in the databases, it was shown that RE-ADH has a high degree of homology with an aldehyde reductase from Coyrnebacterium sp. In the publication on aldehyde reductase, a number of biochemical properties of this enzyme are described (Itoh, N., R. Morihama, J. Wang, K. Okada and N. Mizuguchi (1997), Purification and characterisation of phenylacetaldehyde reductase from a styrene-assimilating Corynebacterium strain, ST-10, Appl. Environ. Microbiol. 63: 3783-378). Some of the (aldehyde) substrates described in that publication were therefore also converted using RE-ADH and compared using the relative activities of the reductase. […] Further comparisons of the two enzymes using the published data material are not meaningful because the enzyme from Corynebacterium was tested exclusively with phenylacetaldehyde as substrate, but RE-ADH has hitherto been characterised using p-Cl-acetophenone.
A comparison of RE-ADH with the aldehyde reductase from Corynebacterium sp. with regard to the activity for acetophenone reduction and a few aldehydes. Data on the enzyme from Corynebacterium were taken from the publication by Itoh et al. (see above), data on RE-ADH are our own measurements (homogeneous=very pure homogeneous enzyme). […]

[2] = system: alcohol dehydrogenase from R. erythropolis (RE-ADH, new ADH expr. in E. coli); test: Relative/specific activity of substrates with the new ADH from R. erythropolis (photometric NADH test); assay type: biochemical, Rhodococcus erythropolis
Protocol: In this case, as is normal, the measured activity for one compound is set at 100% and the activity/activities of the other compound(s) is determined in relation thereto. From the relative activities when compared with other substrates, it can then be recognised whether such another substrate is accepted to a greater or lesser extent.
A first purification can be achieved by anion exchange chromatography (MonoQ-Material, Pharmacia) (mobile buffer: 50 mM TEA buffer, pH 7.0; elution with a NaCl gradient of 0-1 M).
For the activity test, the cells were harvested (15 min centrifuging at 14000 rpm, 4° C.) and degraded after resuspension with 100 mM KPi buffer, pH 6.0 (1.5 ml of buffer per 1 g of cells). For the purposes of degradation, the suspension was treated with ultrasound (2×30 sec. power 100%, pulse 50), then the cell broth was centrifuged. The supernatant liquid is the soluble crude extract, the sediment is the insoluble fraction.
For a comparison using relative activities, the activity of the two enzymes was given with respect to phenylacetaldehyde=100%.
In this case, the relative activity is given with respect to the activity measured for acetophenone.

[3] = system: aldehyde reductase from Corynebacterium sp.; details: phenylacetaldehyde = 100%; cited from earlier work
[4] = Thermal stability of the ADH (activity after incubation); assay type: physicochemical
Protocol: The advantageous aspects and differences mentioned above with regard to improvement in the stability, as compared with previously known alcohol dehydrogenases from R. erythropolis are summarised in Table 5 and in FIG. 4. For better comparison, the relevant enzyme activity measured at 45° C. was set at 100%.
Here, for the very pure new alcohol hydrogenase, high thermal stabilities were produced over a wide temperature range extending up to 65° C. The stability values in this case are […]

[5] = Activity of immobilised RE-ADH (Eupergit, Ni-NTA) with p-Cl-acetophenone, GC; assay type: biochemical; details: for activity of the immobilised enzyme: 30° C.
Protocol: Eupergit C® and Eupergit C 250L® were used in parallel batches, each being loaded with partially purified RE-ADH (literature reference relating to Eupergit immobilisation: E. Katchalski-Katzir, D. M. Kraemer, J. Mol. Catal. B: Enzym. 2000, 10, 157). The following was used for the test: • 1.5 mM p-Cl-acetophenone (dissolved in 0.1 M Na formate buffer, 0.05 M KPi buffer, pH 6.0) • 0.5 mM NAD • 30 mg immobilisate • 1 U/ml formate dehydrogenase (FDH)
These test materials were incubated at 30° C., a sample (100 μl) was taken from each mix after 0, 5, 10 and 15 min, this was extracted with 100 μl of chloroform and the chloroform phase was analysed for any phenylethanol formed using gas chromatography. The activity of the immobilised enzyme can be calculated from the kinetics of phenylethanol formation and values of 11.8 U/g support for Eupergit C® and 8 U/g of support for Eupergit C 250L® were obtained. With respect to the amount of enzyme used, this corresponded to coupling yields of 1% (Eupergit ®) and 0.8% (Eupergit C 250L®). • b) Immobilising on Ni-NTA
Recombinant E. coli JM105/pRE-ADH5 cells were broken down in an imidazole-containing buffer (50 mM NaH2PO4; 300 mM NaCl; 10 mM imidazole, pH 8.0) and a crude extract was prepared in the way described previously. For immobilisation, 1 ml of enzyme solution (13 U/ml RE-ADH, crude extract from the culture E. coli JM105pRE-ADH5; 8 mg/ml of protein) was added to 300 mg of Ni-NTA support material (Quiagen) and incubated for 10 min at 0° C. (ice bath). After centrifuging the suspension, 3 U/ml could still be detected as residual activity in the supernatant liquid as non-bonded enzyme. The immobilisate was reacted with p-Cl-acetophenone to detect the bonded activity.
For this purpose, the following were used per 1 ml of total volume:
3 mM p-Cl-acetophenone (substrate; dissolved in 100 mM Na formate, 50 mM Kpi buffer pH 6.0)
1 U formate dehydrogenase
The test batch was incubated in the same way as described above (immobilisation on Eupergit®), samples were taken and these were analysed using gas chromatography. […] Taking into account the fact that this test was performed with 30 mg of immobilisate and that 10 U RE-ADH had bonded to 300 mg of support material, 1 U was thus introduced in the test batch with the 30 mg. Since an activity of 0.21 U was reported, an immobilisation yield of 21% was obtained. The enantiomer purity (ee value) of the alcohol formed with the immobilisate was >99%.

[6] = pH optimum for the activity and stability of RE-ADH; assay type: biochemical; details: 4° C. and room temperature, 1 and 2 days, pH range 7.5-8.5, tris-HCl buffer 0.1 M
Description: The pH optimum for RE-ADH is at pH 6.0 for the reduction reaction (measured using p-Cl-acetophenone).

[7] = Specific enzyme activity, standard test with p-Cl-acetophenone and NADH; assay type: biochemical
Protocol: For elution, a falling ammonium sulfate gradient (1-0 M) was used; the desired enzyme then eluted at almost 0 M ammonium sulfate. […] The desired protein eluted on application of a falling ammonium sulfate gradient (1-0 M) at about 0.1 M ammonium sulfate. […] The supernatant liquid is the soluble crude extract, the sediment is the insoluble fraction. […] For expression, E. coli BL21 (DE3) was used as host. Recombinant cells were multiplied in the medium LBcam at 37° C. At an OD600 of 0.5, expression was induced with 25 μM IPTG, then the cells were multiplied for 12 h at 30° C. The cells were harvested after centrifuging for 15 min at 5000 rpm, the sediment was resuspended in 100 mM Kpi buffer (1.5 ml per 1 g of cells) and broken down using ultrasound.

In the case of CCCCCCCC=O [Caprylic aldehyde], the “activity towards caprylic aldehyde as multiple of that with respect to acetophenone (so in the source)” value [1] is reported as 12 times, the “activity towards caprylic aldehyde as multiple of that towards acetophenone (so in the source)” value ([2]; RE-ADH) is reported as “about 5 times” and the relative activity ([2]; phenylacetaldehyde = 100%) is reported as 522%. The relative activity [3] was 1220%.

B1: RE-ADH: alcohol dehydrogenase (ADH, RE-ADH) from Rhodococcus erythropolis, Seq. ID NO: 2, tetrameric; also with C-terminal His-Tag or immobilised (protein, listed as Rhodococcus erythropolis)
chain: MKAIQYTRIGAEPELTEIPKPEPGPGEVLLEVTAAGVCHSDDFIMSLPEEQYTYGLPLTLGHEGAGKVAAVGEGVEGLDIGTNVVVYGPWGCGNCWHCSQGLENYCSRAQELGINPPGLGAPGALAEFMIVDSPRHLVPIGDLDPVKTVPLTDAGLTPYHAIKRSLPKLRGGSYAVVIGTGGLGHVAIQLLRHLSAATVIALDVSADKLELATKVGAHEVVLSDKDAAENVRKITGSQGAALVLDFVGYQPTIDTAMAVAGVGSDVTIVGIGDGQAHAKVGFFQSPYEASVTVPYWGARNELIELIDLAHAGIFDIAVETFSLDNGAEAYRRLAAGTLSGRAVVVPGL
modifications: optional C-terminal His-tag or immobilisation
notes: ID NO: 2, tetrameric; also with C-terminal His-Tag or immobilised
With B1 the “enzyme activity after incubation” value ([4]; 10 min at 45° C.) was “(110 U/ml)”, the “relative enzyme activity after incubation” value (“relative enzyme activity” below) ([4]; 10 min at 45° C.) was 95% and the “enzyme activity after incubation” value ([4]; 10 min at 50° C.) was “(110 U/ml)”. The “relative enzyme activity” value ([4]; 10 min at 50° C.) was 95%, the “enzyme activity after incubation” value ([4]; 10 min at 55° C.) was “(115 U/ml)” and the “relative enzyme activity” value ([4]; 10 min at 55° C.) was 99%. For the same molecule, the “enzyme activity after incubation” value ([4]; 10 min at 60° C.) was “(112 U/ml)”, the “relative enzyme activity” value ([4]; 10 min at 60° C.) was 97% and the “enzyme activity after incubation” value ([4]; 10 min at 65° C.) was “(116 U/ml)”. The “relative enzyme activity” value ([4]; 10 min at 65° C.) was 100%, the “enantiomer purity (ee value) of the alcohol formed with the immobilisate” value ([5]; His-Tag enzyme on Ni-NTA) was > 99% and the “activity of the immobilisate” value ([5]; His-Tag enzyme on Ni-NTA, 30 mg immobilisate, 3 mM p-Cl-acetophenone) was 0.21 U. For the same molecule, the “activity of the immobilised enzyme” value ([5]; immobilised on Eupergit C 250L) was 8 U/g of support, the “activity of the immobilised enzyme” value ([5]; immobilised on Eupergit C) was 11.8 U/g support and the deactivation on storage [6] was “no deactivation”. The “activity in the crude extract” value ([7]; crude extract from R. erythropolis) was “about 2.5 U/mg”, the enzyme activity ([7]; hexa-histidine group at the C-terminus, pRE-ADH5 in E. coli JM105) was 7 U/mg and the “ADH activity in the crude extract” value ([7]; plasmid pKK223-3, E. coli JM 105, soluble fraction) was 6 U/mg. The “ADH activity in the crude extract” value ([7]; plasmid pKK223-3, E. coli JM 105, soluble fraction, listed as ADH according to the invention) was “about 6 U/mg”, the “ADH activity in the crude extract” value ([7]; vector pKA1, E. coli BL21 (DE3), cell-free crude extract) was 70 U/mg and the “ADH activity in the crude extract” value ([7]; vector pKA1, E. coli BL21 (DE3), cell-free crude extract, listed as ADH) was 70 U/mg. For the same molecule, the “ADH activity in the crude extract” value ([7]; vector pKA1, E. coli BL21 (DE3), cell-free crude extract, listed as ADH according to the invention) was “about 70 U/mg”.
